According to the supplement of paper PMC7877785:
± gives the uncertainty stated by the source.

Assay: self-splicing fitness, log relative to wild type (ln ratio); higher = more splicing; Tetrahymena group I intron in knt gene, E. coli kanamycin selection, DiMSum; sequences stand for … in CUCUCU…GGAGGGAAAAGUUAUCAGGCAUGCACCUGGUAGCUAGUCUUUAAACCAAUAGAUUGCAUCGGUUUAAAAGGCAAGACCGUCAAAUUGCGGGAAAGGGGUCAACAGCCGUUCAGUACCAAGUCUCAGGGGAAACUUUGAGAUGGCCUUGCAAAGGGUAUGGUAAUAAGCUGACGGACAUGGUCCUAACCACGCAGCCAAGUCCUAAGUCAACAGAUCUUCUGUUGAUAUGGAUGCAGUUCACAGACUAAAUGUCGGUCGGGGAAGAUGUAUUCUUCUCAUAAGAUAUAGUCGGACCUCUCCUUAAUGGGAGCUAGCGGAUGAAGUGAUGCAACACUGGAGCCGCUGGGAACUAAUUUGUAUGCGAAAGUAUAUUGAUUAGUUUUGGAGUACUCGUGGUCG
Method in brief: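 Pooled colonies went to amplicon sequencing on an Illumina HiSeq 2500 after six replicate transformations. The plates were LB agar with 100 μg/mL carbenicillin, 50 μM IPTG and 0.2% rhamnose, with or without 25 μg/mL kanamycin, incubated overnight at 37°C or 30°C. The E. coli BL21(DE3) library had all eight P1ex-region intron nucleotides randomised, the intron placed in the knt kanamycin-resistance gene on pET-22b(+). DiMSum fitness is the error-weighted combination of replicate fold changes, kanamycin against none, normalised to wild type.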

Row | Sequence | self-splicing fitness (ln) (30 °C) | self-splicing fitness (ln) (37 °C)
1 | CCCUAGCAAUAUUACGCGAC | -4.32 ± 0.36 | -2.67 ± 0.33
2 | CCCUAGCAAUAUUACGCGGG | -3.75 ± 0.23 | -1.92 ± 0.2
3 | CCCUAGCAAUAUUACGGAGU | -4.58 ± 0.36 | -2.99 ± 0.35
4 | CCCUAGCAAUAUUACGGAUU | -4.34 ± 0.23 | -2.26 ± 0.16
5 | CCCUAGCAAUAUUACGGCUA | -2.53 ± 0.17 | -3.13 ± 0.31
6 | CCCUAGCAAUAUUACGGGAC | -2.48 ± 0.18 | -1.87 ± 0.23
7 | CCCUAGCAAUAUUACGGUAU | -3.5 ± 0.14 | -2.13 ± 0.14
8 | CCCUAGCAAUAUUACGUAAG | -3.8 ± 0.18 | -2.04 ± 0.17
9 | CCCUAGCAAUAUUACGUAUA | -3.24 ± 0.25 | -2.89 ± 0.4
10 | CCCUAGCAAUAUUACGUCGG | -3.32 ± 0.22 | -2.57 ± 0.23
11 | CCCUAGCAAUAUUACGUCUG | -2.99 ± 0.18 | -3.17 ± 0.22
12 | CCCUAGCAAUAUUACGUGAG | -3.42 ± 0.22 | -2.38 ± 0.23
13 | CCCUAGCAAUAUUACGUUGA | -3.23 ± 0.19 | -2.83 ± 0.23
14 | CCCUAGCAAUAUUACGUUUA | -2.91 ± 0.14 | -2.16 ± 0.16
15 | CCGAAGCAAUAUUACGAAAA | -1.87 ± 0.26 | -1.09 ± 0.27
16 | CCGAAGCAAUAUUACGACGA | -1.44 ± 0.12 | -0.711 ± 0.13
17 | CCGAAGCAAUAUUACGAGGA | -4.32 ± 0.39 | -2.54 ± 0.21
18 | CCGAAGCAAUAUUACGAGGU | -3.79 ± 0.2 | -2.9 ± 0.26
19 | CCGAAGCAAUAUUACGAGUG | -0.855 ± 0.049 | -0.0149 ± 0.062
20 | CCGAAGCAAUAUUACGAUAA | -2.83 ± 0.12 | -2.96 ± 0.25
21 | CCGAAGCAAUAUUACGAUAC | -3.86 ± 0.47 | -1.95 ± 0.26
22 | CCGAAGCAAUAUUACGAUGC | -4.36 ± 0.26 | -2.34 ± 0.23
23 | CCGAAGCAAUAUUACGAUUC |  | -2.07 ± 0.25
24 | CCGAAGCAAUAUUACGAUUG | -1.16 ± 0.093 | -0.0885 ± 0.095
25 | CCGAAGCAAUAUUACGCAGA | -2.91 ± 0.38 | -2.57 ± 0.33

Row | Sequence | self-splicing fitness (ln) (30 °C) | self-splicing fitness (ln) (37 °C)
26 | CCGAAGCAAUAUUACGCAUG | -1.84 ± 0.11 | -0.892 ± 0.12
27 | CCGAAGCAAUAUUACGCCAC |  | -1.9 ± 0.34
28 | CCGAAGCAAUAUUACGCCGU | -2.44 ± 0.27 | -1.04 ± 0.36
29 | CCGAAGCAAUAUUACGCCUU | -3.35 ± 0.36 | -1.21 ± 0.3
30 | CCGAAGCAAUAUUACGCUGA | -3.08 ± 0.27 | -3.41 ± 0.42
31 | CCGAAGCAAUAUUACGGGAA | -2.26 ± 0.25 | -1.73 ± 0.32
32 | CCGAAGCAAUAUUACGGGUC | -3.13 ± 0.22 | -3.03 ± 0.37
33 | CCGAAGCAAUAUUACGGUCC | -3.68 ± 0.46 | -2.26 ± 0.26
34 | CCGAAGCAAUAUUACGGUCU | -2.93 ± 0.17 | -3.23 ± 0.25
35 | CCGAAGCAAUAUUACGUGCG | -1.04 ± 0.085 | -0.542 ± 0.096
36 | CCGAAGCAAUAUUACGUUUU | -3.83 ± 0.17 | -3.26 ± 0.18
37 | CCGCAGCAAUAUUACGAACC | -1.84 ± 0.39 | 
38 | CCGCAGCAAUAUUACGACCG | -0.576 ± 0.074 | 0.229 ± 0.11
39 | CCGCAGCAAUAUUACGAGAC | -2.24 ± 0.22 | 
40 | CCGCAGCAAUAUUACGAUGU | -3.21 ± 0.14 | -2.83 ± 0.17
41 | CCGCAGCAAUAUUACGCAAG | -1.41 ± 0.095 | -1.18 ± 0.13
42 | CCGCAGCAAUAUUACGCAGA | -2.89 ± 0.2 | -2.25 ± 0.17
43 | CCGCAGCAAUAUUACGCAUC | -3.93 ± 0.28 | -1.95 ± 0.22
44 | CCGCAGCAAUAUUACGCGAG | -3.17 ± 0.12 | -2.2 ± 0.16
45 | CCGCAGCAAUAUUACGCGGG | -4.07 ± 0.14 | -3.74 ± 0.12
46 | CCGCAGCAAUAUUACGCUAG | -1.53 ± 0.1 | -2.05 ± 0.12
47 | CCGCAGCAAUAUUACGCUUC | -4.17 ± 0.46 | 
48 | CCGCAGCAAUAUUACGGACC | -3.45 ± 0.41 | 
49 | CCGCAGCAAUAUUACGGAGA | -2.53 ± 0.17 | -2.36 ± 0.21
50 | CCGCAGCAAUAUUACGGCAU | -3.29 ± 0.2 | -2.38 ± 0.17
